Results published in article PMC10786891, “Massively parallel profiling of RNA-targeting CRISPR-Cas13d”.
Changes are numbered by the printed parent chain. In names and notes the source's numbering stands.

T1: EsCas13d, nuclease-dead (Eubacterium siraeum, UniProt B0MS50, R295A;H300A;R849A;H854A)
T1 sequence: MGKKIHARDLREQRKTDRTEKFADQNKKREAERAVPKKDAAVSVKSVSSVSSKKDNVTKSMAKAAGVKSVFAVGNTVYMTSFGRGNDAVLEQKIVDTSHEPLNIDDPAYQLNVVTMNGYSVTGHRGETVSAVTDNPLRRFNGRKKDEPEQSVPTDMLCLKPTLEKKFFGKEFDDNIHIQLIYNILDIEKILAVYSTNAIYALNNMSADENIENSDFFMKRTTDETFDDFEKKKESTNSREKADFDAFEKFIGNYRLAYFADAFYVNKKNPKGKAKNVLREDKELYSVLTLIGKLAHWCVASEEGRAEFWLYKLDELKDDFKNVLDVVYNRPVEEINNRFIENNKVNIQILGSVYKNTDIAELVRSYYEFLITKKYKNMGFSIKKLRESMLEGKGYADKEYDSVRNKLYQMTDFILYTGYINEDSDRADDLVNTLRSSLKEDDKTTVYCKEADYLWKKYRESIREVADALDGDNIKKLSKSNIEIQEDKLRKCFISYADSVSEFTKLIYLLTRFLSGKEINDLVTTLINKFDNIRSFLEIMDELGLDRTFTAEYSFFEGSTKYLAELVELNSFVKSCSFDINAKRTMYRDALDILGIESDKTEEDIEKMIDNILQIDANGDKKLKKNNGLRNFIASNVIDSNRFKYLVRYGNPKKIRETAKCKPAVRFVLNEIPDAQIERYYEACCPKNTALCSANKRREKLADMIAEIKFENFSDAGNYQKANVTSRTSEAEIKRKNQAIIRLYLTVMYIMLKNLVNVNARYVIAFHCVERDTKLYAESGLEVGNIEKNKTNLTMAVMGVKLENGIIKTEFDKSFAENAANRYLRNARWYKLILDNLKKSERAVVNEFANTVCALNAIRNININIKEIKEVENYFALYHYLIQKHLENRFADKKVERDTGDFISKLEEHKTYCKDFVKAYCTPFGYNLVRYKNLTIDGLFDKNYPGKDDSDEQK

B1: target 2 MT 5'PFS AAC 3'PFS UUU (mixed)
RNA 1: CACCCGUGCAAAAUUGCAGGGGUCUAAAACCUUCUCCAAAUUGUUUCAUCCU
RNA 2: GGGAAUGGAUCCACAUCUACGAAUUCAACAGGAUGAAACAAUUUGGAGAAGUUUAGAUCGGAAGAGCACACGU
B2: target 2 MT 5'PFS CGG 3'PFS AAG (mixed)
RNA 1: B1 RNA 1
RNA 2: B1 RNA 2 with A27C, A28G, C29G, U52A, U53A, U54G
B3: target 2 MT 5'PFS UUU 3'PFS CGA (mixed)
RNA 1: B1 RNA 1
RNA 2: B1 RNA 2 with A27U, A28U, C29U, U52C, U53G, U54A
B4: target 2 MT 5'PFS UAG 3'PFS CAG (mixed)
RNA 1: B1 RNA 1
RNA 2: B1 RNA 2 with A27U, C29G, U52C, U53A, U54G
B5: target 2 MT 5'PFS AAC 3'PFS UUA (mixed)
RNA 1: B1 RNA 1
RNA 2: B1 RNA 2 with U54A
B6: target 2 MT 5'PFS UCU 3'PFS AAG (mixed)
RNA 1: B1 RNA 1
RNA 2: B1 RNA 2 with A27U, A28C, C29U, U52A, U53A, U54G
B7: target 2 MT 5'PFS CGG 3'PFS CGA (mixed)
RNA 1: B1 RNA 1
RNA 2: B1 RNA 2 with A27C, A28G, C29G, U52C, U53G, U54A
B8: target 2 MT 5'PFS UCU 3'PFS AAC (mixed)
RNA 1: B1 RNA 1
RNA 2: B1 RNA 2 with A27U, A28C, C29U, U52A, U53A, U54C
B9: target 2 MT 5'PFS CUU 3'PFS CUC (mixed)
RNA 1: B1 RNA 1
RNA 2: B1 RNA 2 with A27C, A28U, C29U, U52C, U54C
B10: target 2 MT 5'PFS CGG 3'PFS AAU (mixed)
RNA 1: B1 RNA 1
RNA 2: B1 RNA 2 with A27C, A28G, C29G, U52A, U53A
B11: target 2 MT 5'PFS UAG 3'PFS CAA (mixed)
RNA 1: B1 RNA 1
RNA 2: B1 RNA 2 with A27U, C29G, U52C, U53A, U54A
B12: target 2 MT 5'PFS CGC 3'PFS UGC (mixed)
RNA 1: B1 RNA 1
RNA 2: B1 RNA 2 with A27C, A28G, U53G, U54C
B13: target 2 MT 5'PFS AUU 3'PFS UAC (mixed)
RNA 1: B1 RNA 1
RNA 2: B1 RNA 2 with A28U, C29U, U53A, U54C
B14: target 2 MT 5'PFS CAU 3'PFS CGA (mixed)
RNA 1: B1 RNA 1
RNA 2: B1 RNA 2 with A27C, C29U, U52C, U53G, U54A
B15: target 2 MT 5'PFS CUU 3'PFS CUA (mixed)
RNA 1: B1 RNA 1
RNA 2: B1 RNA 2 with A27C, A28U, C29U, U52C, U54A
B16: target 2 MT 5'PFS UGU 3'PFS UCG (mixed)
RNA 1: B1 RNA 1
RNA 2: B1 RNA 2 with A27U, A28G, C29U, U53C, U54G
B17: target 2 MT 5'PFS CGG 3'PFS CGC (mixed)
RNA 1: B1 RNA 1
RNA 2: B1 RNA 2 with A27C, A28G, C29G, U52C, U53G, U54C
B18: target 2 MT 5'PFS UUU 3'PFS CGC (mixed)
RNA 1: B1 RNA 1
RNA 2: B1 RNA 2 with A27U, A28U, C29U, U52C, U53G, U54C
B19: target 2 MT 5'PFS CUU 3'PFS CUG (mixed)
RNA 1: B1 RNA 1
RNA 2: B1 RNA 2 with A27C, A28U, C29U, U52C, U54G
B20: target 2 MT 5'PFS AUU 3'PFS CAG (mixed)
RNA 1: B1 RNA 1
RNA 2: B1 RNA 2 with A28U, C29U, U52C, U53A, U54G
B21: target 2 MT 5'PFS UCU 3'PFS AAU (mixed)
RNA 1: B1 RNA 1
RNA 2: B1 RNA 2 with A27U, A28C, C29U, U52A, U53A
B22: target 2 MT 5'PFS CGG 3'PFS AAA (mixed)
RNA 1: B1 RNA 1
RNA 2: B1 RNA 2 with A27C, A28G, C29G, U52A, U53A, U54A
B23: target 2 MT 5'PFS CGG 3'PFS AAC (mixed)
RNA 1: B1 RNA 1
RNA 2: B1 RNA 2 with A27C, A28G, C29G, U52A, U53A, U54C
B24: target 2 MT 5'PFS CAC 3'PFS UUU (mixed)
RNA 1: B1 RNA 1
RNA 2: B1 RNA 2 with A27C
B25: target 2 MT 5'PFS UGU 3'PFS UCU (mixed)
RNA 1: B1 RNA 1
RNA 2: B1 RNA 2 with A27U, A28G, C29U, U53C
B26: target 2 MT 5'PFS UUA 3'PFS GCA (mixed)
RNA 1: B1 RNA 1
RNA 2: B1 RNA 2 with A27U, A28U, C29A, U52G, U53C, U54A
B27: target 2 MT 5'PFS UCU 3'PFS AAA (mixed)
RNA 1: B1 RNA 1
RNA 2: B1 RNA 2 with A27U, A28C, C29U, U52A, U53A, U54A
B28: target 2 MT 5'PFS UAG 3'PFS CAU (mixed)
RNA 1: B1 RNA 1
RNA 2: B1 RNA 2 with A27U, C29G, U52C, U53A
B29: target 2 MT 5'PFS CUU 3'PFS CUU (mixed)
RNA 1: B1 RNA 1
RNA 2: B1 RNA 2 with A27C, A28U, C29U, U52C
B30: target 2 MT 5'PFS UUA 3'PFS GCC (mixed)
RNA 1: B1 RNA 1
RNA 2: B1 RNA 2 with A27U, A28U, C29A, U52G, U53C, U54C
B31: target 2 MT 5'PFS CAU 3'PFS CGG (mixed)
RNA 1: B1 RNA 1
RNA 2: B1 RNA 2 with A27C, C29U, U52C, U53G, U54G
B32: target 2 MT 5'PFS AAU 3'PFS UCG (mixed)
RNA 1: B1 RNA 1
RNA 2: B1 RNA 2 with C29U, U53C, U54G
B33: target 2 MT 5'PFS GCG 3'PFS CUA (mixed)
RNA 1: B1 RNA 1
RNA 2: B1 RNA 2 with A27G, A28C, C29G, U52C, U54A
B34: target 1 complement block 6-8 (mixed)
RNA 1: CACCCGUGCAAAAAUGCAGGGGUCUAAAACUGAGCGGAUAACCUCUCUAUGG
RNA 2: GGGAAUGGAUCCACAUCUACGAAUUCGUACCAUAGAGAGGUUAAGGGCUCACCGAGAUCGGAAGAGCACACGU
B35: target 1 G15A,C22A (mixed)
RNA 1: B34 RNA 1
RNA 2: B34 RNA 2 with C30A, G37A, A44U, G45C, G46C
B36: target 1 insA 3' of 8,insG 3' of 6 (mixed)
RNA 1: B34 RNA 1
RNA 2: GGGAAUGGAUCCACAUCUACGAAUUCGUACCAUAGAGAGGUUAUACCGGCUCACCGAGAUCGGAAGAGCACACGU
B37: target 1 insU 3' of 21,insG 3' of 14 (mixed)
RNA 1: B34 RNA 1
RNA 2: GGGAAUGGAUCCACAUCUACGAAUUCGUACCUAUAGAGAGGGUUAUCCGCUCACCGAGAUCGGAAGAGCACACGU

These binders were tested against T1, EsCas13d, nuclease-dead (assay: crRNA (strand 1, pre-loaded); Mg2+; 40 mM Tris-HCl pH 7.5, 150 mM NaCl, 6 mM MgCl2, 1 mM DTT, 0.1% Tween-20, 0.2 mg/ml BSA; 25 C; 10 min per concentration, then washed). Details: tags: His6-TwinStrep-SUMO cleaved; N-terminal SNAP kept (SNAP-Surface 488); label: 3' end held by stalled T7 RNA polymerase.
B1 gave a Kd of 7.1 ± 1.3 nM.
In the case of B2, the Kd is reported as 4.4 ± 0.5 nM.
B3 gave a Kd of 8 ± 0.9 nM.
With B4 the Kd was 2.68 ± 0.21 nM.
In the case of B5, the Kd is reported as 7.4 ± 1.7 nM.
In the case of B6, the Kd is reported as 20 ± 6 nM.
Binder B7 has a Kd of 3 ± 0.3 nM.
Work on B8 yielded a Kd of 9.5 ± 1.7 nM.
For B9, the Kd was 5.6 ± 0.5 nM.
B10 showed a Kd of 4.8 ± 0.7 nM.
Binder B11 has a Kd of 1.92 ± 0.26 nM.
Work on B12 yielded a Kd of 6 ± 0.9 nM.
Work on B13 yielded a Kd of 11.9 ± 2.2 nM.
Work on B14 yielded a Kd of 3.8 ± 0.7 nM.
With B15 the Kd was 10.8 ± 3.5 nM.
With B16 the Kd was 15.8 ± 2.5 nM.
Work on B17 yielded a Kd of 3.81 ± 0.28 nM.
With B18 the Kd was 6.4 ± 0.5 nM.
B19 was tested, and the Kd was 4.2 ± 0.8 nM.
B20 was tested, and the Kd was 6.9 ± 1.1 nM.
B21 showed a Kd of 26 ± 10 nM.
For B22, the Kd was 5.7 ± 0.9 nM.
B23 showed a Kd of 4.2 ± 0.4 nM.
Work on B24 yielded a Kd of 5.2 ± 0.8 nM.
B25 gave a Kd of 17.7 ± 2.2 nM.
B26 gave a Kd of 14.7 ± 2.1 nM.
B27 showed a Kd of 20 ± 8 nM.
Work on B28 yielded a Kd of 3.7 ± 0.5 nM.
B29 showed a Kd of 4.7 ± 0.5 nM.
With B30 the Kd was 37 ± 12 nM.
Binder B31 has a Kd of 2.83 ± 0.35 nM.
Work on B32 yielded a Kd of 6.4 ± 1 nM.
For B33, the Kd was 14.3 ± 2.7 nM.
In the case of B34, the Kd is reported as 8.69 ± 0.24 nM.
Binder B35 has a Kd of 20.6 ± 2.7 nM.
For B36, the Kd was 17.5 ± 0.9 nM.
Binder B37 has a Kd of 39 ± 4 nM.
